# Source: US10738094B2, “Peptides and combination of peptides for use in immunotherapy against ovarian cancer and other cancers” (immatics biotechnologies GmbH, priority 2015, dated 2020)
# Target: HLA-A*02:01 (Homo sapiens, UniProt P04439, D140Y/D185E/D98H/E176V/E277Q/G131W/G231S/I119V/I121R/I166T/I218V/L300P/L318F/N151K/N90K/P208A/P217A/Q86G/Q94H/R138H/R169H/T345S)
# Experiment: MHC binding assay (UV-ligand exchange, beta2m ELISA)
# Settings: binding to HLA-A*02:01 ranged by peptide exchange yield (UV-ligand exchange, β2m ELISA)
# Text: Candidate peptides for T cell based therapies according to the present invention were further tested for their MHC binding capacity (affinity). The individual peptide-MHC complexes were produced by UV-ligand exchange, where a UV-sensitive peptide is cleaved upon UV-irradiation, and exchanged with the peptide of interest as analyzed. Only peptide candidates that can effectively bind and stabilize the peptide-receptive MHC molecules prevent dissociation of the MHC complexes. To determine the yield of the exchange reaction, an ELISA was performed based on the detection of the light chain (β2m) of stabilized MHC complexes. The assay was performed as generally described in Rodenko et al. (Rodenko et al., 2006).
# 96 well MAXISorp plates (NUNC) were coated over night with 2 ug/ml streptavidin in PBS at room temperature, washed 4× and blocked for 1 h at 37° C. in 2% BSA containing blocking buffer. […] Peptide-MHC monomers of the UV-exchange reaction were diluted 100 fold in blocking buffer. Samples were incubated for 1 h at 37° C., washed four times, incubated with 2 ug/ml HRP conjugated anti-β2m for 1 h at 37° C., washed again and detected with TMB solution that is stopped with […]. Absorption was measured at 450 nm. Candidate peptides that show a high exchange yield (preferably higher than 50%, most preferred higher than 75%) are generally preferred for a generation and production of antibodies or fragments thereof, and/or T cell receptors or fragments thereof, as they show sufficient avidity to the MHC molecules and prevent dissociation of the MHC complexes.
row,Substance,Peptide exchange
1,513 (SLWPSPEQL; listed as Homo sapiens) [compound 513],“++” (≥20% = ++)
2,19 (FMVDNEAIYDI; listed as Homo sapiens) [compound 19],“++++” (≥75% = ++++)
3,71 (GILARIASV; listed as Homo sapiens) [compound 71],“+++” (≥50 = +++)
4,563 (WLLPYNGVTV; listed as Homo sapiens) [compound 563],“+++” (≥50 = +++)
5,507 (KLIDDQDISISL; listed as Homo sapiens) [compound 507],“+++” (≥50 = +++)
6,207 (GLTSTNAEV; listed as Homo sapiens) [compound 207],“++” (≥20% = ++)
7,10 (FLATFPLAAV; listed as Homo sapiens) [compound 10],“++++” (≥75% = ++++)
8,359 (YLLPESVDL; listed as Homo sapiens) [compound 359],“+++” (≥50 = +++)
9,549 (AMLENASDIKL; listed as Homo sapiens) [compound 549],“+++” (≥50 = +++)
10,229 (RLPGPLGTV; listed as Homo sapiens) [compound 229],“++” (≥20% = ++)
11,365 (YVIDQGETDVYV; listed as Homo sapiens) [compound 365],“+++” (≥50 = +++)
12,133 (KVLSNIHTV; listed as Homo sapiens) [compound 133],“++” (≥20% = ++)
13,538 (LLLAHIIAL; listed as Homo sapiens) [compound 538],“++” (≥20% = ++)
14,595 (VLLSIYPRV; listed as Homo sapiens) [compound 595],“+++” (≥50 = +++)
15,216 (NLWEDPYYL; listed as Homo sapiens) [compound 216],“+++” (≥50 = +++)
16,159 (GLVGNPLPSV; listed as Homo sapiens) [compound 159],“++++” (≥75% = ++++)
17,474 (YLDPALELGPRNV; listed as Homo sapiens) [compound 474],“+++” (≥50 = +++)
18,604 (SILDRDDIFV; listed as Homo sapiens) [compound 604],“+++” (≥50 = +++)
19,175 (YLFENISQL; listed as Homo sapiens) [compound 175],“+++” (≥50 = +++)

row,Substance,Peptide exchange
1,608 (SLLSVSHAL; listed as Homo sapiens) [compound 608],“+++” (≥50 = +++)
2,63 (YLLPSGGSVTL; listed as Homo sapiens) [compound 63],“++” (≥20% = ++)
3,138 (YQYPRAILSV; listed as Homo sapiens) [compound 138],“+++” (≥50 = +++)
4,615 (VLPPDTDPA; listed as Homo sapiens) [compound 615],“++” (≥20% = ++)
5,498 (KLWTGGLDNTV; listed as Homo sapiens) [compound 498],“+++” (≥50 = +++)
6,69 (FQLDPSSGVLVTV; listed as Homo sapiens) [compound 69],“+++” (≥50 = +++)
7,477 (ALLPASGQIAL; listed as Homo sapiens) [compound 477],“+++” (≥50 = +++)
8,44 (ILDPISSGFLL; listed as Homo sapiens) [compound 44],“++” (≥20% = ++)
9,125 (VQIHQVAQV; listed as Homo sapiens) [compound 125],“+++” (≥50 = +++)
10,124 (ALYETELADA; listed as Homo sapiens) [compound 124],“++” (≥20% = ++)
11,140 (YMDAPKAAL; listed as Homo sapiens) [compound 140],“++” (≥20% = ++)
12,541 (SMLEPVPEL; listed as Homo sapiens) [compound 541],“+++” (≥50 = +++)
13,305 (SIANFSEFYV; listed as Homo sapiens) [compound 305],“++++” (≥75% = ++++)
14,520 (LAVHPSGVAL; listed as Homo sapiens) [compound 520],“+” (≥10% = +)
15,617 (ALMYESEKVGV; listed as Homo sapiens) [compound 617],“+++” (≥50 = +++)
16,258 (ELAERVPAI; listed as Homo sapiens) [compound 258],“++” (≥20% = ++)
17,217 (ALIHPVSTV; listed as Homo sapiens) [compound 217],“++” (≥20% = ++)
18,491 (GLNDRSDAV; listed as Homo sapiens) [compound 491],“++” (≥20% = ++)
19,103 (TLAEEVVAL; listed as Homo sapiens) [compound 103],“+++” (≥50 = +++)

# The next lines start with the values.
row,Peptide exchange,Substance
1,“+++” (≥50 = +++),50 (SLSELEALM; listed as Homo sapiens) [compound 50]
2,“+++” (≥50 = +++),490 (FLLQHVQEL; listed as Homo sapiens) [compound 490]
3,“++” (≥20% = ++),33 (VLLSLLEKV; listed as Homo sapiens) [compound 33]
4,“+++” (≥50 = +++),304 (MTLGQIYYL; listed as Homo sapiens) [compound 304]
5,“+++” (≥50 = +++),515 (LLQELVLFL; listed as Homo sapiens) [compound 515]
6,“+++” (≥50 = +++),487 (LLINSVFHV; listed as Homo sapiens) [compound 487]
7,“+++” (≥50 = +++),206 (VLQEGKLQKLAQL; listed as Homo sapiens) [compound 206]
8,“+++” (≥50 = +++),306 (ALVNVQIPL; listed as Homo sapiens) [compound 306]
9,“+++” (≥50 = +++),250 (ALSEEGLLVYL; listed as Homo sapiens) [compound 250]
10,“+++” (≥50 = +++),214 (FLLDLDPLLL; listed as Homo sapiens) [compound 214]
11,“++++” (≥75% = ++++),349 (SLTEYLQNV; listed as Homo sapiens) [compound 349]
12,“+++” (≥50 = +++),149 (NLLELFVQL; listed as Homo sapiens) [compound 149]
13,“+++” (≥50 = +++),34 (ILVEADSLWVV; listed as Homo sapiens) [compound 34]
14,“++” (≥20% = ++),191 (LLQEGQALEYV; listed as Homo sapiens) [compound 191]
15,“+++” (≥50 = +++),496 (FLVEKQPPQV; listed as Homo sapiens) [compound 496]
16,“+++” (≥50 = +++),130 (FLWNGEDSALL; listed as Homo sapiens) [compound 130]
17,“+++” (≥50 = +++),555 (YVLEGLKSV; listed as Homo sapiens) [compound 555]

row,Peptide exchange,Substance
1,“++” (≥20% = ++),18 (YLVAKLVEV; listed as Homo sapiens) [compound 18]
2,“++” (≥20% = ++),524 (ALIENLTHQI; listed as Homo sapiens) [compound 524]
3,“+++” (≥50 = +++),301 (FLVEDLVDSL; listed as Homo sapiens) [compound 301]
4,“+++” (≥50 = +++),367 (SLQNHNHQL; listed as Homo sapiens) [compound 367]
5,“++” (≥20% = ++),31 (YLAPELFVNV; listed as Homo sapiens) [compound 31]
6,“+++” (≥50 = +++),106 (LLYDAVHIVSV; listed as Homo sapiens) [compound 106]
7,“+++” (≥50 = +++),471 (YLYNNMIAKI; listed as Homo sapiens) [compound 471]
8,“+++” (≥50 = +++),584 (ALAEVAAMENV; listed as Homo sapiens) [compound 584]
9,“+++” (≥50 = +++),223 (ALLENIALYL; listed as Homo sapiens) [compound 223]
10,“+++” (≥50 = +++),144 (YIMEPSIFNTL; listed as Homo sapiens) [compound 144]
11,“+++” (≥50 = +++),556 (FLTDLEDLTL; listed as Homo sapiens) [compound 556]
12,“+++” (≥50 = +++),495 (FIFSEKPVFV; listed as Homo sapiens) [compound 495]
13,“+++” (≥50 = +++),267 (ALQDFLLSV; listed as Homo sapiens) [compound 267]
14,“+++” (≥50 = +++),152 (ILFEDIFDV; listed as Homo sapiens) [compound 152]
15,“++” (≥20% = ++),251 (ALYTGFSILV; listed as Homo sapiens) [compound 251]
16,“+++” (≥50 = +++),195 (GLFADLLPRL; listed as Homo sapiens) [compound 195]
17,“++” (≥20% = ++),84 (VTFGEKLLGV; listed as Homo sapiens) [compound 84]
